Laboratory results published in the supplement of paper PMC12764529.
± gives the half width of the 95% confidence interval.

Experiments:
[1] = folding stability dG unfold from chymotrypsin proteolysis; higher = more stable
Protocol: (§1)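 Folding stability of de novo designed mini-proteins (<80 aa, no Cys; designed by TrROS, TrMRF, ProteinMPNN and the joint model) was measured by cDNA display proteolysis with trypsin and chymotrypsin. Each protease was used at 11 concentrations in a threefold dilution series plus a no-protease condition. K50 was inferred by Bayesian fitting of sequencing counts, and dG unfold was derived against a sequence-predicted unfolded-state K50 (Tsuboyama et al. method). Sequences shown include variable-length N-terminal GS-type padding (SAGGSAGG...) inside a display construct carrying a PA tag. Rows were kept only if the AF2 dimer inter-PAE was >15, to exclude likely homo-oligomers.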

[2] = folding stability dG unfold (combined trypsin and chymotrypsin); higher = more stable
Protocol: as §1

Sequence	folding stability dG unfold [1] [kcal/mol]	folding stability dG unfold [2] [kcal/mol]
SAGGNLRIRIEMENKDGNKRKIPIPEEEFNRIKESLKNGKPITPEPASWISDYARRNGYDVKIVDIYSAGGS [r8_159_TrROS]	-0.101 ± 0.36	-0.35 ± 0.33
SAIKIEDDPNGYQQIEIPNPENGRKIVITMMYSPDGQFQMSLQRMDPNGKKKTITAPMPVEEAIDELKDSAG [r14_179_TrROS]	0.698 ± 0.33	0.0571 ± 0.6
SAGGSAGGSAGGNKIHIMMPYDWAEEFANELQQQGIDPDNVKIEVHPMEMPPPPPPGDKSAGGSAGGSAGGS [r10_602_TrROS]	-0.0563 ± 0.11	< -1
SAGGSAGGSAGGMTTKYVITVEVPGENRTETIYLDVPPSRPEEAEALAKEISPNAKIERLSAGGSAGGSAGG [r11_250_JUSTAS]	0.187 ± 0.16	-0.144 ± 0.29
SAGGSAGGSAGMVIPSTSPEEAVEKLRELVEKRGDFLVDVKPTEVHPDGTVVIETKKKPLSAGGSAGGSAGG [r17_430_JUSTAS]	0.21 ± 0.09	-0.269 ± 0.21
SAGMKIKVTIERGGDRAERILPPEEAKALLDKYPEDGEIPLDLEGEEVTVKIEKTPPALPTEEAIKELKSAG [r5_669_JUSTAS]	0.11 ± 0.4	< -1
SAGGSAGGSGMPRKIASYEEKEEEDGKKTVKVRFPDDGKEITLSPEKAGKITPDSTVPLEELLSAGGSAGGS [r20_3_JUSTAS]	0.404 ± 0.049	-0.168 ± 0.43
SAGGSAGGSGMSSTSTTTVEIEKDPSTGKVLKKTVTSPTTTLAPGGEWTTTVSTSTEEISPDLSAGGSAGGS [r12_629_JUSTAS]	-0.101 ± 0.24	-0.237 ± 0.4
SAGGSAGGSELITLTEKASLAVGELNLPSPEELAKKKYPDVKPKNITVSTKPGEGLVTVTVDGKSAGGSAGG [r6_81_JUSTAS]	0.207 ± 0.091	-0.222 ± 0.19
SAMNVTLTKHPDGTYTVGATLPGYSPVSTQTIPSSVPSYTVTYRTPDEVLKVTYKDSGLTPERVPISRLSAG [r14_403_JUSTAS]	0.395 ± 0.053	-0.0343 ± 0.044
SAGGGAMLVGETTTSKWIEKTIRNENGEVETKKVKVTTKPVTYKLPDGTLATETKVTIIYPDGSTKEESAGG [r13_113_JUSTAS]	0.103 ± 0.21	-0.181 ± 0.31
SAGGSAGGSAGGKPVKVKVVIPVPDGDEVLVLEVEVEGEGGEEAVRQALEVAAELLREGSAGGSAGGSAGGS [r10_863_TrMRF]	0.768 ± 0.088	0.0842 ± 0.23
SAGGSAGGSGMPTRNVPITTPDGKVVTVVERPPERAEIIFPDGSRATIVDPARGYEEITITPESAGGSAGGS [r12_491_JUSTAS]	0.945 ± 0.027	0.542 ± 0.059
SAGGSAGGSAGGKPTIKLKVTITNENGEKIEIEVEAESEEEALEALKALLPPGWKVEIESAGGSAGGSAGGS [r10_145_TrROS_Hall]	2.82 ± 0.2	4.21 ± 0.67
SAGGMTIVSSGPSIEQALQEAAEAGGDATVIYKEPESNTIITLDVKYDPAPRTITVLSETETPVPPLLSAGG [r13_309_JUSTAS]	0.758 ± 0.079	0.17 ± 0.1
SPVAVVTYEDGSVSEVPFTHPDGRAYDLSRGPGDVATLTVTRLLPDGSLEPLPTVPFTSEAEAEAYLAAASA [r9_942_JUSTAS]	0.201 ± 0.12	-0.231 ± 0.074
SKTVVIAADPNNPEAIKKAIEEAPPDTTIVIVVPLENGEYPKVTITRKPPEVPPIPPELLSEEEIKELLPSA [r9_1103_TrMRF]	0.836 ± 0.053	0.42 ± 0.14
NIRFPDGREIEIPPEPGEEYEIMLPNGPEIKIKKIKYENGEPTIEIERKDGGKKEHEMPPNQPDQILDAIRS [r1_66_TrROS]	0.421 ± 0.051	0.0319 ± 0.29
SAGGSAGGSAGEAASSLKLPPVTLTTPPVPVELPPGLTVESVEPVRTPSGETILVVNLVRSAGGSAGGSAGG [r11_388_JUSTAS]	0.279 ± 0.13	-0.349 ± 0.19
SAGGSAGGSAGGPNWRIITHEIPIKDGEIEINLPEGIKPQSIERNPDDGYIKVSIVIPLSAGGSAGGSAGGS [r10_906_TrROS]	-0.259 ± 0.14	-0.54 ± 0.15
SAPVRTVTLNVPVERDAAGNLVPVSPEEIVAELEKEGYPREEIEVKNVTETTIPVTIEVDLVNGKMRVLGSA [r9_225_JUSTAS]	-0.326 ± 0.61	< -1
SAGGSAMKIEEEEVEVPLSDEELEALKKNPGKTVKVKVIKIEIEMPEEEKKRLAKELEEKFNIKIESAGGSA [r15_347_TrROS_Hall]	0.0343 ± 0.2	-0.146 ± 0.27
MPSVTLPVTLVLDTRRPDGRPLTPEQVRALAEAAVRELAEATGVDVEADVTVTPLGPEGRAVVDVVVTVRPS [r1_231_TrMRF]	0.746 ± 0.1	0.201 ± 0.14
SAGGSAIKIDPDYGTIEIYNPDNGKEIEIPIDGLPPGRKMDIEINNDKIEIKMPGGTRELPIDDIKSAGGSA [r15_864_TrROS]	0.655 ± 0.068	0.194 ± 0.26

Sequence	folding stability dG unfold [1] [kcal/mol]	folding stability dG unfold [2] [kcal/mol]
SAGGSYMVKVEWRNNNKEMEMTHPFDDPEDALNFAHDLLPNGMELDIEVFDPKEGEPIGTVPFRVDSAGGSA [r2_390_TrROS]	-0.536 ± 0.26	< -1
SAGGSAGGALTPTDEVTLTLPDGTVRPGRVEVLPDNVVRVRLEGSEVLLTRDPEGDEVTVERVASAGGSAGG [r6_68_JUSTAS]	0.964 ± 0.011	0.503 ± 0.047
SAGSVTRSFPSGSSVSAETDPETNTITISTSPSSGQLVAQLPTAGEKVVPVSDRDLEEAAKEAAEALLSSAG [r5_447_JUSTAS]	-0.134 ± 0.12	-0.854 ± 0.32
MTEKKEESLGEKKRITTTKPQEDGNPVVTERIIDPNGTIEKVIVKKSSPNKPTTEELPPFSTSNKEIVEKLS [r1_301_JUSTAS]	-0.691 ± 0.14	-0.821 ± 0.4
SAGPEIKIEPRSYDPKKGIFTYSAYVLDYKDGKKEREIEVGTWRYYGPDGTVEPISEEDILQKAKDLLSSAG [r5_909_TrMRF]	0.543 ± 0.32	0.371 ± 0.18
SAGGSASTTPIKFPNGFEVTKIEEGKGLVYIKYSPENPEILEKLGVEALETNENEVIVPREAIEKKSAGGSA [r15_984_JUSTAS]	-0.634 ± 0.28	-0.993 ± 0.36
SAGGSAGGSAVEFTDPNGAEVLEIKPLPDGTTRVLTKLPGGEIPIVTYDPNTGKITTTLLPASAGGSAGGSA [r18_483_JUSTAS]	0.135 ± 0.11	-0.251 ± 0.2
SAGGSAGGSSMEVVTPIERPVDVTSPENGEVVKVRVKTLVGKDPNAWTTETTLTLPDGTPVALSAGGSAGGS [r12_283_JUSTAS]	0.988 ± 0.11	0.337 ± 0.2
SAGGSAGGSENAALENPFANRPPIPPVRAVLYDPDGTPRVLEGRSLEEIRRYAEERGVVVDISSAGGSAGGS [r12_244_TrMRF]	0.397 ± 0.072	-0.165 ± 0.075
SAGGSAGGSGAEITTLPEGRALLRLYDEGGVLVEEAEVEVELDAVLVFDRDNPRIGVFGPDELSAGGSAGGS [r12_1002_TrMRF]	0.0264 ± 0.13	-0.203 ± 0.14
SAGGSAGGDKVTIESFHPENWYFRIRYPGNGKPISFPIKSVDELLDKIEPSGLPVEIEWMPPEESAGGSAGG [r6_33_TrROS]	0.233 ± 0.26	-0.0248 ± 0.32
SAGGSAGGSAPFENLPEDAKEVEITFDPSLSEEVRKALAEELKPRIEAQGIKYKFKIVPKSNLSAGGSAGGS [r12_456_JUSTAS]	-0.448 ± 0.59	< -1
SAGGAIGPEEAERLAQEIADRLAAEFREAEPDVEVEVEAEVFPPEGVIRVRPRLPDGRLLAEVTFPVGSAGG [r13_247_TrMRF]	0.498 ± 0.041	0.0873 ± 0.067
SAGGSAGGSAILRIKLEHPKSGKPMTWVIPPEMNIEQIADMLMEQHPNAEIKDIEWVPPNQISAGGSAGGSA [r18_242_TrROS]	0.3 ± 0.12	-0.0546 ± 0.097
SAGGSAGGSAGGMILTGDRAEILARLEAEGLGVAEEETVEEGDAPVTPVRVEVPPGAAGSAGGSAGGSAGGS [r10_885_JUSTAS]	0.972 ± 0.028	0.561 ± 0.11
SAGGSAGGSAGGGPAKALITSPDGSKAEATVTVDTATGTVTLTVENASLPPDWKLELLGSAGGSAGGSAGGS [r10_306_TrMRF]	0.768 ± 0.065	0.0987 ± 0.23
SAGGSAGGSAGMKVIVLPVPPNADRVRITYEKGPTLEIEAREDEPVVIVAPENEFTVEVDSAGGSAGGSAGG [r11_52_TrMRF]	-0.383 ± 0.28	< -1
SAGGSAGGSAGMGSTSTSTSITPTPEGRIVVDTTTTFTDPGGVPVGSTTTTTTLPPGAAASAGGSAGGSAGG [r11_898_JUSTAS]	0.242 ± 0.066	-0.279 ± 0.16
SAGGSEAAPGEKVTITTVTSSVLKTYETPTGTLETESSTSVTTTTVTVPAAAAAAAGVRYSPDPLLSAGGSA [r2_495_JUSTAS]	-0.348 ± 0.14	< -1
SAGGSASMRTVTLTSTETLELKDPSGNLRVETTPVVVTVPVEVPDPNLPPPAVNSPVLTELLLRLLSAGGSA [r15_728_JUSTAS]	0.413 ± 0.064	0.0436 ± 0.084
SAGGSAGGSAPGKHKTIEINGPGDVEEAVDYAKDEMPPGKPIHIRFNDEPITIPAEDAKKISAGGSAGGSAG [r3_50_TrROS]	0.445 ± 0.047	-0.0642 ± 0.22
SAGGSAGGSAGGSMTVTETRYVGTDPATGVATTLSTYRDASGTPGLVTTYPGGAVTVALSAGGSAGGSAGGS [r4_35_JUSTAS]	0.0995 ± 0.26	-0.312 ± 0.28
SAGGSAGGSASLDPVVVTVTRYPTGVTTTTVSSRPGGEPVTTTTTYDPVSPVAPLPASRLASAGGSAGGSAG [r3_336_JUSTAS]	0.59 ± 0.032	0.167 ± 0.12
